Target: T1, Human LRP6 E1E2 (21-630) (human, UniProt O75581 21-630)
T1 sequence (looked up): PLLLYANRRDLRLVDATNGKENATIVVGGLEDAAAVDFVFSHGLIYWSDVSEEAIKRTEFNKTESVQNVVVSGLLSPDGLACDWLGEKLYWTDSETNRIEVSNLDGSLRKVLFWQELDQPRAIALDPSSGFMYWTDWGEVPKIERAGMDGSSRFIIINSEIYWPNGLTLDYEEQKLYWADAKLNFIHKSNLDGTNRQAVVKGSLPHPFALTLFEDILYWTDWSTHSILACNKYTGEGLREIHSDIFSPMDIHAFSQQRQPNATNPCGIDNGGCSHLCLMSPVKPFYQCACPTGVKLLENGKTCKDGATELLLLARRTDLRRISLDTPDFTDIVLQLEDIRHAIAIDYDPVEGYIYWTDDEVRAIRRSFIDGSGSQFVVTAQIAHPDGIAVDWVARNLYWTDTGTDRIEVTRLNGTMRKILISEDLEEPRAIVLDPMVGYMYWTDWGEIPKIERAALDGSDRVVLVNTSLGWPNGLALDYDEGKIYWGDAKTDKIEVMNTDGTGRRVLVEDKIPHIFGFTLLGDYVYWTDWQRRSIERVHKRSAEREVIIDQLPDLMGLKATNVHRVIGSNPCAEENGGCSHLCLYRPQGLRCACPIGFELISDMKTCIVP
Assay: HDX-MS

- binding result: binds
B1: SOSTΔ (24-169) (domain or fragment, human, UniProt Q9BQB4 24-169, looked up)
chain: QGWQAFKNDATEIIPELGEYPEPPPELENNKTMNRAENGGRPPHHPFETKDVSEYSCRELHFTRYVTDGPCRSAKPVTELVCSGQCGPARLLPNAIGRGKWWRPSGPDFRCIPDRYRAQRVQLLCPGGEAPRARKVRLVASCKCKR

From paper PMC8411024 (Biomolecules & Therapeutics, 2021)
